From patent US20210253718A1, “FRIZZLED5 PROTEIN-BINDING AGENTS” (Modmab Therapeutics Corporation, priority 2016, published 2021)

Tests used:
FZD5 CRD = target: T1, FZD5 CRD (Homo sapiens, UniProt Q13467); test: Flow cytometry of anti-FZD5 Fab binding to CHO cells overexpressing Frizzled CRD
T1 construct: K29-T156; GPI anchor signal (C); expressed in transfected cells; host or cells: CHO cells, lentiviral pLenti-puro
T1 sequence (Q13467 29-156): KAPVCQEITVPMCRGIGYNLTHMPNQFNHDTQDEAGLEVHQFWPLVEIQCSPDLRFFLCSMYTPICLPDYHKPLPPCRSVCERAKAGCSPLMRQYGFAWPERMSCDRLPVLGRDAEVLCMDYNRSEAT
Description: (§1) Plasmids: pLCKO lentiviral vector used for knockout (TKO) library construction and expression of individual gRNAs was constructed as described previously (Hart et al., 2015). Briefly, single guide RNA (sgRNA) scaffold was amplified from px330 (Addgene 42230) and cloned into pLKO.TRC005 lentiviral vector (Broad Institute, Cambridge, Mass.) using AgeI/EcoRI restriction sites. BfuAI sites were added at the 5′ end of the sgRNA scaffold for cloning the TKO library or individual gRNA target sequences. Lenti Cas9-2A-BsdR vector used to generate Cas9 stable expression cell lines was constructed as described previously (Hart et al., 2015). Briefly, lentiCRISPR pXPR_001 (Addgene 49535) was modified through removal of the sgRNA scaffold region through NdeI/EcoRI digest and blunt ends generation using Large Klenow Fragment (NEB). 2A-puro was replaced with 2A-BsdR by PCR using the NheI/MluI sites. Each of the 10 human Frizzled cysteine rich domains (CRDs) were cloned into the lentiviral expression plasmid pLenti-puro in the following cassette: FZD_CRD-MYC-GPI.
(§2) Flow cytometry: Primary staining of cells was performed by treatment with 200 nM Frizzled profiler Fab. Alexa Fluor 488 AffiniPure F(ab′)2 was used as the secondary antibody (Jackson ImmunoResearch #109-546-097). c-Myc (9E10) IgG1 (primary antibody, Santa Cruz, lot #D0306) and Alexa Fluor 488 IgG (secondary antibody, Life technologies, lot #1458649) were used as controls. Dead cells were excluded by staining with Fixable Viability Dye eFluor 660 (eBioscience, catalogue number 65-0864). All reagents were used as per manufacturer's instructions. Flow cytometry was performed on a BD FACSCanto II flow cytometer (BD Biosciences), and data were analyzed with FlowJo software (FlowJo, LLC).
(§3) To confirm that the FZD5-WNT7B circuit is not driven simply by expression and rule out the possibility of a disconnect between RNA and protein levels for the Wnt receptors in HPAF-II cells, a panel of recombinant Fabs were generated, alternatively referred to herein as ‘Frizzled profiler’, that can detect and discriminate all but one of the ten Frizzled receptors. […] To characterize the binding specificity of these Fabs on cells, a panel of 10 CHO cell lines was generated, each expressing the CRD domain of a different myc-tagged Frizzled family member anchored at the plasma membrane through a GPI anchor (CHO-myc-FZDGPI). Despite the high sequence identity between Frizzled family members (FIG. 7A, FIG. 7B), selective Fabs were identified for FZD4, FZD5, FZD6 and FZD10 as assessed by immunofluorescence and flow cytometry (FIG. 7D and FIG. 8). […] The FZD8 CRD is most homologous to that of FZD5 (FIG. 7B). These Fabs can be used to discriminate expression of FZD1, FZD2, FZD4, FZD5, FZD6, FZD7, FZD8, FZD9 and FZD10 (FIG. 7D and FIG. 8). The ‘Frizzled profiler’ therefore consists of 10 different Fabs that can be used to discriminate expression of 9 different Frizzled family members. The Frizzled profiler was then used to confirm that HPAF-II cells express FZD1, FZD5, FZD6 and possibly FZD8 (FIG. 7E).
(§4) The binding of anti-FZD5 Fabs to cell surface-expressed Frizzled protein was further determined for each member of the Frizzled family via flow cytometry and immunofluorescence analysis of a panel of 10 CHO cell lines, each ectopically over-expressing the extracellular cysteine-rich domain (CRD) of a different Frizzled protein family member.

FZD7 CRD = target: T2, FZD7 CRD (Homo sapiens, UniProt O75084); test: as above
T2 construct: D45-S169; GPI anchor signal (C); expressed in transfected cells; host or cells: CHO cells, lentiviral pLenti-puro
Description: as §1, §2, §3, §4

FZD1 CRD = target: T3, FZD1 CRD (Homo sapiens, UniProt Q9UP38); test: as above
T3 construct: D112-P238; GPI anchor signal (C); expressed in transfected cells; host or cells: CHO cells, lentiviral pLenti-puro
Description: as §1, §2, §3, §4

FZD10 CRD = target: T4, FZD10 CRD (Homo sapiens, UniProt Q9ULW2); test: as above
T4 construct: 30-156; GPI anchor signal (C); expressed in transfected cells; host or cells: CHO cells, lentiviral pLenti-puro
T4 sequence (Q9ULW2 30-156): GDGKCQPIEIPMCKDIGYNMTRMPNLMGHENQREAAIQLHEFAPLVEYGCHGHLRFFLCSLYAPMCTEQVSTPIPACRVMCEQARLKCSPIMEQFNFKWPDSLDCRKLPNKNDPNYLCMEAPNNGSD
Description: as §1, §2, §3, §4

FZD4 CRD = target: T5, FZD4 CRD (Homo sapiens, UniProt Q9ULV1); test: as above
T5 construct: E42-V167; GPI anchor signal (C); expressed in transfected cells; host or cells: CHO cells, lentiviral pLenti-puro
T5 sequence (Q9ULV1 42-167): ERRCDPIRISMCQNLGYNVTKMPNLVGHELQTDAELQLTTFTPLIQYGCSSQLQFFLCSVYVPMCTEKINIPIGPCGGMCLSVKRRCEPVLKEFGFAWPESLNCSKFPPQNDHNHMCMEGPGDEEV
Description: as §1, §2, §3, §4

FZD9 CRD = target: T6, FZD9 CRD (Homo sapiens, UniProt O00144); test: as above
T6 construct: G35-A161; GPI anchor signal (C); expressed in transfected cells; host or cells: CHO cells, lentiviral pLenti-puro
T6 sequence (O00144 35-161): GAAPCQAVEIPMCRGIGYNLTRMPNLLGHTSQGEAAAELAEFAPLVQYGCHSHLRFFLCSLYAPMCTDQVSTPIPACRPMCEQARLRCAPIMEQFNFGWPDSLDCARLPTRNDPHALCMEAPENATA
Description: as §1, §2, §3, §4

FZD6 CRD = target: T7, FZD6 CRD (Homo sapiens, UniProt O60353); test: as above
T7 construct: S20-P146; GPI anchor signal (C); expressed in transfected cells; host or cells: CHO cells, lentiviral pLenti-puro
T7 sequence (O60353 20-146): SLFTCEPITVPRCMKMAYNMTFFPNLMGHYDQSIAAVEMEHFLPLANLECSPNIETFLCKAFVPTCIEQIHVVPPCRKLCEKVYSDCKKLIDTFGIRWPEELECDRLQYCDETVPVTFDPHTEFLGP
Description: as §1, §2, §3, §4

[1] = test system: CHO cells not expressing Frizzled CRD; test: Flow cytometry of anti-FZD5 Fab binding to CHO cells not expressing Frizzled CRD (background)
Source text: as §4

PATU8988S cells = test: Effect of anti-FZD5 Fabs on proliferation of pancreatic cancer cell lines (percent growth inhibition); format: cell-based, human; details: Fab 2 μg/ml

Median fluorescence, Frizzled CRD overexpressed on CHO cells: FZD5 (FZD5 CRD): 28.13 | Median fluorescence, Frizzled CRD overexpressed on CHO cells: FZD7 (FZD7 CRD): 9.14 | Median fluorescence, Frizzled CRD overexpressed on CHO cells: FZD1 (FZD1 CRD): 10.27 | Median fluorescence, Frizzled CRD overexpressed on CHO cells: FZD10 (FZD10 CRD): 2.59 | Median fluorescence, Frizzled CRD overexpressed on CHO cells: FZD4 (FZD4 CRD): 3.65 | Median fluorescence, Frizzled CRD overexpressed on CHO cells: FZD9 (FZD9 CRD): 2.76 | Median fluorescence, Frizzled CRD overexpressed on CHO cells: FZD6 (FZD6 CRD): 2.89
Substance: Fab-2931: anti-FZD5 Fab with antibody variable region Fv-2931; CDR SEQ ID NOs: 35, 36, 70, 102, 146, 176 (CDR 1 QSVSSA; CDR 2 SAS; CDR 3 QQSSYSLIT; CDR 4 GFNLSYSS; CDR 5 ISPYSGST; CDR 6 ARGSYWYVGGGWWVSGHGGMDY)
Median fluorescence, Frizzled CRD overexpressed on CHO cells: None [1]: 3.11 | percent growth inhibition, PATU8988s 2 μg/ml (PATU8988S cells): −20.00%
